This data set in a line: yeast display, Sf9 membrane polyspecificity reagent, FACS + sequencing; frameworks hold sequencing errors. The gist of the method: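 After 36–48 hours of galactose induction, yeast (Saccharomyces cerevisiae BJ5465) displaying a synthetic nanobody library were stained at 4 °C for 1 hour with 10% biotinylated, detergent-solubilized Sf9 membrane reagent. Streptavidin microbeads enriched the stained cells before FACS sorting into low and high (top ~1%) gates on anti-HA and streptavidin fluorescence. Each clone's polyreactivity label reflects its gate of origin.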
On to “QVQLVESGGGLVQAGGSLRLSCAASGRIFPLYDMGWYRQAPGKERELVAAISSGGTTYYADSVKGRFTISRDNAKNTVYLQMNSLKPEDTEVYYCARRPAQRWGRFDYWVQGTQVTVSS”, for which the “polyreactivity (PSR sort gate)” value is reported as “low polyreactivity”.

For the sequence “QVQLVESGGGLVQAGGSLRLSCAASGRIFPRNAMGWYSPAPGKERELVAAITRAGSTYYADSVKGRFTISRDNAKNTVYLQLNSLKPEDTAVYYCNRQWHRDVYGHDYWGQGTQVTVSS”, the “polyreactivity (PSR sort gate)” value is “high polyreactivity”. In the case of “QVQLVESGGGLVQAGGSLRLSCAASGRIFPRNTMGWYRQAPGKERELVAAISTRGGSTYYADSVKGRSTISRDNAKNNVYLQMNSLKPEDTAVYYCAAGRRFPAIYSTGNYWGQGTQVTVSS” it was “high polyreactivity”; in that of “QVQLVESGGGLVQAGGSLRLSCAASGRIFPRNTMGWYRQAPGKEREMVAAISTRGGSTYYADSVKGRFTISRDNAQNTVYLEMNSLKPEDTAVDYSAAGRRFPAIYSTGNYWGQGTQVTVSS”, “high polyreactivity”; in that of “QVQLVESGGGLVQAGGSLRLSCAASGRIFPRYAMGWYRQATGKERELVATISSGGSTYYADSVKGRFTISRDNAKNTVYLQMNSLKPEDTAVYYCAARKRPYTVINGMDYWGQGTQVTVSS”, “low polyreactivity”. “QVQLVESGGGLVQAGGSLRLSCAASGRIFPSYAMGWYRQAPGKERELVAAISSSGGRTYYADSVKGRFTISRDNAKNTVYLQMNSLKPEDTAVYYCAARWVQYGVRYDYWGQGTQVTVSS”: the “polyreactivity (PSR sort gate)” value is on record as “high polyreactivity”. As to “QVQLVESGGGLVQAGGSLRLSCAASGRIFPSYAMGWYRQAPGKERELVAAITSSDSTYYADSVKGRFTISRDNAKNTVYLQMNSLKPEDTAVYYCAAAYSYSGWWWFGYWGQGTQVTVSS”, the “polyreactivity (PSR sort gate)” value was “high polyreactivity”. In the case of “QVQLVESGGGLVQAGGSLRLSCAASGRIFPSYDMGWYRQAPGKDRELVATISSRGDSTYYADSVKGRFTISRDNAKNTVYLQMNSLKPEDTAVYYCAAERPFWEYDYWGQGTQVTVSS” it was “low polyreactivity”; in that of “QVQLVESGGGLVQAGGSLRLSCAASGRIFPTNAMGWYRQAPGKERELVAAIPVSGGSTYYADSVKGRFTISRDNAKNTVYLQMNSLKPEDTAVYYCAADSSTYRFDYWGQGTQVTVSS”, “low polyreactivity”. To “QVQLVESGGGLVQAGGSLRLSCAASGRIFPTNAMGWYRQAPGKERELVAAIPVSGGSTYYADSVKGRFTISRDNAKNTVYLQMNSLKPEDTAVYYCAVDDRASVGSRLDHWGQGTQVTVSS” belongs “low polyreactivity”; to “QVQLVESGGGLVQAGGSLRLSCAASGRIFPTNAMGWYRQAPGKERELVASITRSGSTYYADSVKGRFTISRDNAKNTVYLQMNSLKPEDTAVYYCAKRYRYSVGWPVKNSAFGYWGQGTQVTVSS”, “low polyreactivity”. To “QVQLVESGGGLVQAGGSLRLSCAASGRIFPTSTKGWYRQAPGKERELVAAITSGGTTYYADSVKGRVTISRDNAKNTVYLQMNSLKPEDTAVYYCAALRPRRGYYYWGQGTQVTVSS” belongs “high polyreactivity”; to “QVQLVESGGGLVQAGGSLRLSCAASGRIFPVNAMGWYRQAPGKEREFVARISRRGGSTYYADSVKGRFTISRDYEKNTVYLQMNSLKPEDTAVYYCAAVSSRYSYDYWGQGTQVTVSS”, “high polyreactivity”; to “QVQLVESGGGLVQAGGSLRLSCAASGRIFPVNTMGWYREAPGKERELVAAITSGGGTYYADSVKGRFTISRDNAKNTVYLQMNSLKPEDTAVYYCNAPEGRKPYDSWGQGTQVTVSS”, “low polyreactivity”. Take “QVQLVESGGGLVQAGGSLRLSCAASGRIFPVNTMGWYRQAQGKVRELVAAITSGGGTYYADSVKGRFTISRDNAKNTVYLQMNSLKPEDTAVYYCNAPEGRKPYDSWGQGTQVTVSS”: the “polyreactivity (PSR sort gate)” value is on record as “low polyreactivity”.

For “QVQLVESGGGLVQAGGSLRLSCAASGRIFPWNTMGWYRQAPGKERELVAGINNGDRTYYADSVKGRFTISRDNAKNTVYLQMNSLKPEDTAVYYCAVDTWYFLFQYGYYQEGDYWGQGTQVTVSS”, the “polyreactivity (PSR sort gate)” value is given as “low polyreactivity”. In the case of “QVQLVESGGGLVQAGGSLRLSCAASGRIFPWNTMGWYRQAPGKERELVAGINNGDRTYYADSVKGRFTISRDNENNTVYLQMNSLKPEDTAVYYCAARSPPSAYTYTTWEYDYWGQGTQVTVSS” it was “low polyreactivity”.

As to “QVQLVESGGGLVQAGGSLRLSCAASGRIFPWYTMGWYRQAPGKERELVAAITSGGNTDYADSVKGRFTISRDNAKNNVYLQMNSLKPEDTAVYYCAAGGYPGTTYYGYDYWGQGTQVTVSS”, the “polyreactivity (PSR sort gate)” value is reported as “low polyreactivity”. To “QVQLVESGGGLVQAGGSLRLSCAASGRIFPYMGWYRQAPGKERELVAAINASGGRTYYADSVKGRFTISRDNAKNTVYLQMNSLKPEDTAVYYCNAVWSSDTYTHPQYDYWGQGTQVTVSS” belongs “high polyreactivity”; to “QVQLVESGGGLVQAGGSLRLSCAASGRIFPYNAMGWYRQAPGKERELVATNTSGRSTYYADSVKGRFTISRDNAKNTVDVPLNSLKPEDTAVYYCAARYPSIYYYRYDYWGQGTQVTVSS”, “high polyreactivity”; to “QVQLVESGGGLVQAGGSLRLSCAASGRIFPYYAKGWYRQAPGKERELVAAINSGGSTYYADSVKGRFTISRDNAQNTVYLQMNSLKPEDTAVYYCIADVLYEDGFFWDDYWGQGTQVTVSS”, “low polyreactivity”. In the case of “QVQLVESGGGLVQAGGSLRLSCAASGRIFPYYAMGWSRQAPGKVRELVAAISVSDVRTYYPDSVKGRFTISRDNAKNTVYLQMNSLKPEDTAVYYCAAYWYRSPQSGLDYWGQGTQVTVSS” it was “low polyreactivity”; in that of “QVQLVESGGGLVQAGGSLRLSCAASGRIFPYYAMGWYIQAPGKERELVAAIDGIGDTTYYADSVKGRFTISRDNAKNTVYLQMNSLKPEDTAVYYCNADGDAYYWGSYDEEDYWGQGTQVTVSS”, “low polyreactivity”. In the case of “QVQLVESGGGLVQAGGSLRLSCAASGRIFPYYAMGWYRQAPGKDRELVAAISWSGGRTYYADSVKGRFTISRDYAKNTVYLQMNSLKPDDNAVYFCAAGHSYRPYYYYGEYDYWGQGTQVTVSS” it was “high polyreactivity”; in that of “QVQLVESGGGLVQAGGSLRLSCAASGRIFPYYAMGWYRQAPGKDRELVAANSYRGPRTSYADSVKGRFTISRDNAKNTAYLQRNSLKPEDTAVYYCAAVSVSWRGGRSSYEYWGQGTQVTVSS”, “high polyreactivity”. Turning to “QVQLVESGGGLVQAGGSLRLSCAASGRIFPYYAMGWYRQAPGKERELVAGISYSGTSTYYADSVKGRFTISRDNAKNTVYLQMNSLKPEDTAVYYCATTSWRYGYDYWGQGTQVTVSS”, the “polyreactivity (PSR sort gate)” value is given as “high polyreactivity”. In the case of “QVQLVESGGGLVQAGGSLRLSCAASGRIFPYYAMGWYRQAPGKERELVATISSGGRTNYADSVKGRFTMSRDNAKNTVYVQMNSLKPEDTAVYYCAADYRTPTDVEYDYWGQGTQVTVSS” it was “high polyreactivity”; in that of “QVQLVESGGGLVQAGGSLRLSCAASGRIFPYYTLGWYTQAPGKERELVATITTGGSTNYADSVKGRFTLSRDNAENTVYLKMNSLKPEDTAVYYCNNDGVVEVRFTGRQEYDYWGQGTQVTVSS”, “low polyreactivity”.

As for “QVQLVESGGGLVQAGGSLRLSCAASGRIFPYYTMGWYRQAPGKERELVAAISRRGSSTYYADSVKGRFTISRDNAQNTVYLQMNSLKPEDTAVYNCAADRGGYTRTGEYDYWGQGTQVTVSS”, the “polyreactivity (PSR sort gate)” value is given as “high polyreactivity”. To “QVQLVESGGGLVQAGGSLRLSCAASGRIFPYYVMGWYRQAPGKERELVAAISRSGSSTYYADSVKGRFTISRDNAKNTVSLQMNSLKPEDTAVYSCAADYNWSPYYTRGDYWGQGTQVTVSS” belongs “high polyreactivity”.

The values above are taken from the nanobody polyreactivity screen of Harvey et al. (2022).
